Entries after “also recorded” stand apart in the source; their conditions may differ.
How the values were obtained:
BMPR1A = target: T1, BMPR1A (Homo sapiens, UniProt P36894); experiment: Biopanning of Ph.D.-12 phage library on immobilized BMPR1A-Fc; assay type: binding; settings: peptide displayed on p3 of M13 phage; 3 rounds of panning
T1 construct: purchased G&P Biosciences
Procedure: The Ph.D.™-12 phage library was diluted in tris-buffered saline mixed with Tween-20 (TBS+0.1% v/v Tween-20 and abbreviated TBST) for a final concentration of 2×10^11 phage in 1 mL of TBST. The diluted library was then pipetted onto one of the wells of a 12-well poly-L-lysine plate followed by rocking the plate gently for 60 minutes at room temperature. […] This supernatant served as the starting phage library for subsequent binding selections. The phages which stuck to the plate were discarded.
This procedure is only applicable if the charge of the desired protein to be immobilized is negative, determined by checking the pI value of the protein. […]. This procedure was written for 12-well plates coated in poly-L-lysine (positively charged). Separate solutions of BMPR1A-Fc and BMPR2-Fc were prepared at 80 μg/ml in Tris-buffered saline (pH 7.5). In separate wells and on separate poly-L-lysine coated 12-well plates, 0.3 ml of each solution of receptor was added. The solutions of BMPR1A-Fc and BMPR2-Fc were swirled around the plate surface until the entire surface was wet. The plates were then incubated overnight at 4° C. with gentle agitation in a humidified container (a sealed plastic box with damp paper towels). Each individual receptor was now immobilized.
The following selection procedure is based off of the direct coating procedure outlined in the Ph.D.™-12 Phage Display Libraries instructional manual (New England Biolabs) with some alterations. This procedure was carried out after immobilizing the targets BMPR1A-Fc and BMPR2-Fc in a 12-well poly-L-lysine coated plate. A stock solution of tetracycline was prepared (20 mg/ml in 1:1 ethanol:water). The coating solution containing the target receptors was poured off followed by firmly slapping the plates face down on a clean paper towel. Each well was then filled with blocking buffer (0.1 M NaHCO3 (pH 8.6), 5 mg/mL BSA, 0.02% NaN3. Filter sterilize, store at 4° C.) and incubated for 1 hour at 4° C. The blocking solution was then poured off followed by firmly slapping the plates down against a clean paper towel. Each plate was washed rapidly 6 times with Tris-buffered saline mixed with Tween-20 (TBS+0.1% v/v Tween-20). The plate was slapped against a clean paper towel each time. 1 ml of the phage library created from the negative selection process was then pipetted onto each of the target coated wells. The plates were then rocked gently at room temperature for 60 min. The non-binding phages were then discarded by pouring off the supernatant and slapping the plate face-down on a clean paper towel. The plate was then washed 10 times with TBST followed by slapping the plate face-down on a clean paper towel each time (a clean section of paper towel was used each time to prevent cross-contamination). The bound phages were then eluted by incubating with a nonspecific disruption buffer (0.2 M Glycine-HCl (pH 2.2), 1 mg/ml bovine serum albumin (BSA) for 15 minutes. The eluate (immersed in the disruption buffer) was then pipetted into a microcentrifuge tube followed by neutralization with 150 μl of 1 M Tris-HCl (pH 9.1). A small portion (˜1 μl) of this eluate could be titered and sequenced if desired. The rest of the eluate was amplified (see amplification of phage library section). Once amplified, the eluate was also titered. Determine the concentration of amplified phages by counting the blue plaques in titering as described. Dilute the amplified library to contain 2×10^11 phages in 1 mL of TBS (as little as 10^9 plaque forming units per ml can be used if there is not enough). A second poly-L-lysine 12-well plate was then coated with the target receptors to allow for a second round of biopanning carried out using the same steps except that the Tween-20 concentration in the wash steps was raised to 0.5% (v/v). The eluate from the second round was then amplified, titered and used in an additional 3rd round of panning on newly receptor coated plates. […]

hMSCs = experiment: qPCR of osteoblast marker genes; assay type: cell-based, human; settings: 26 days on phage films; normalized to GAPDH; relative to negative control (basal media)
Procedure: Gene expression was normalized to the reference gene, GAPDH. All fold changes are relative to a negative control (basal media with no peptides or phage) which represents the baseline at zero-fold change. […] All data represent the mean±standard deviation. (*P≤0.05, **P≤0.01, ***P≤0.001).
hMSCs were seeded (1×10^3 cells per culture plate) on to phage films as well as relevant control plates. The cells were then cultured for 26 days. The cells then were processed with a Power SYBR™ Green Cells-to-CT™ Kit. The number of cells was adjusted to be 5×10^3 cells per lysis reaction. All other parameters were kept the same as the manufacturer's protocol for this kit. The gene expression of osteopontin, osteocalcin, and collagen type 1A were measured as a fold change normalized to the reference gene GAPDH and a negative control (basal media+ cells but no phage) such that the baseline at zero-fold change represents the negative control. For temperature cycling and measuring CT values, a MiniOpticon Real Time PCR System was used.

T1 sequence (P36894 24-152 limits assumed): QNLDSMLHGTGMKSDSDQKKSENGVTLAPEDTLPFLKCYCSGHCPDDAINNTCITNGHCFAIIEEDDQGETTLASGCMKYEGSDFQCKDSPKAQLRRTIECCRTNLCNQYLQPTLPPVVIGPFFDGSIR

| Sequence | Binding to BMPR1A found by biopanning (frequency among sequenced plaques) (BMPR1A) | Osteopontin gene expression, fold change (hMSCs) |
| --- | --- | --- |
| SGTQDSMVGWNK (Completely synthesized in the lab - Ph.D.-12 Phage Display Peptide Library Kit (New England Biolabs)) | showed up as a result of biopanning on both BMPR1A alone and BMPR2 alone; also recorded: discovered to bind | greater osteopontin production than the wild type, but not greater than the Lonza osteogenic media; also recorded: statistically significant advantage over the wild type phage films |
| VHVPLHRGAVSA (Completely synthesized in the lab - Ph.D.-12 Phage Display Peptide Library Kit (New England Biolabs)) | discovered to bind | greater osteopontin production than the Lonza osteogenic media; also recorded: statistically significant advantage over the wild type phage films; also recorded: statistically significant advantage over the positive control |
